Patent US20250171562A1 (ALK ABELL, published 2025)

B1: CIgG4D2A1(G4S)3 (Fc fusion)
chain 1: GPPCPPCPAPEFLGGPSVFLFPPKPKDTLMISRTPEVTCVVVDVSQEDPEVQFNWYVDGVEVHNAKTKPREEQFNSTYRVVSVLTVLHQDWLNGKEYKCKVSNKGLPSSIEKTISKAKGQPREPQVYTLPPCQEEMTKNQVSLWCLVKGFYPSDIAVEWESNGQPENNYKTTPPVLDSDGSFFLYSRLTVDKSRWQEGNVFSCSVMHEALHNHYTQKSLSLSLGKGGGGSGGGGSGGGGSDVQLQESGGGLVEAGGSLRLSCVASGRTFSGWSMGWFRQAPGKEREFVAAISWVGSWIGGTVYSNSVKGRFTISRDNARTTVYLQMNSLKPEDTAVYFCAAANSETPRIFASEYDYWGQGTQVTVS
chain 2: GPPCPPCPAPEFLGGPSVFLFPPKPKDTLMISRTPEVTCVVVDVSQEDPEVQFNWYVDGVEVHNAKTKPREEQFNSTYRVVSVLTVLHQDWLNGKEYKCKVSNKGLPSSIEKTISKAKGQPREPQVCTLPPSQEEMTKNQVSLSCAVKGFYPSDIAVEWESNGQPENNYKTTPPVLDSDGSFFLVSRLTVDKSRWQEGNVFSCSVMHEALHNHYTQKSLSLSLGKGGGGSGGGGSGGGGSEVQLLESGGGLVQPGGSLRLSCAASGFTFGNYDMAWVRQAPGKRPEWVSSIDTGGDITHYADSVKGRFTISRDNAKNTLYLQMNSLRPEDTAVYWCATDEEYALGPNEFDYYGQGTLVTVSS
B2: NIgG4E1A1(RS) (Fc fusion)
chain 1: DVQLQESGGGLVQAGGSLRLSCLASGRTFTTTSGYNMGWFRQAPGKEREFVAGIKWVSGSNRAYAESVKGRFTISRDNAKNTVYLQMNSLKPEDTAVYYCAAATGQSYVPIREYEYVYWGQGTQVTVSRSGPPCPPCPAPEFLGGPSVFLFPPKPKDTLMISRTPEVTCVVVDVSQEDPEVQFNWYVDGVEVHNAKTKPREEQFNSTYRVVSVLTVLHQDWLNGKEYKCKVSNKGLPSSIEKTISKAKGQPREPQVYTLPPCQEEMTKNQVSLWCLVKGFYPSDIAVEWESNGQPENNYKTTPPVLDSDGSFFLYSRLTVDKSRWQEGNVFSCSVMHEALHNHYTQKSLSLSLGK
chain 2: EVQLLESGGGLVQPGGSLRLSCAASGFTFGNYDMAWVRQAPGKRPEWVSSIDTGGDITHYADSVKGRFTISRDNAKNTLYLQMNSLRPEDTAVYWCATDEEYALGPNEFDYYGQGTLVTVSSRSGPPCPPCPAPEFLGGPSVFLFPPKPKDTLMISRTPEVTCVVVDVSQEDPEVQFNWYVDGVEVHNAKTKPREEQFNSTYRVVSVLTVLHQDWLNGKEYKCKVSNKGLPSSIEKTISKAKGQPREPQVCTLPPSQEEMTKNQVSLSCAVKGFYPSDIAVEWESNGQPENNYKTTPPVLDSDGSFFLVSRLTVDKSRWQEGNVFSCSVMHEALHNHYTQKSLSLSLGK
B3: NIgG4E1A1(G4S)1 (Fc fusion)
chain 1: DVQLQESGGGLVQAGGSLRLSCLASGRTFTTTSGYNMGWFRQAPGKEREFVAGIKWVSGSNRAYAESVKGRFTISRDNAKNTVYLQMNSLKPEDTAVYYCAAATGQSYVPIREYEYVYWGQGTQVTVSGGGGSGPPCPPCPAPEFLGGPSVFLFPPKPKDTLMISRTPEVTCVVVDVSQEDPEVQFNWYVDGVEVHNAKTKPREEQFNSTYRVVSVLTVLHQDWLNGKEYKCKVSNKGLPSSIEKTISKAKGQPREPQVYTLPPCQEEMTKNQVSLWCLVKGFYPSDIAVEWESNGQPENNYKTTPPVLDSDGSFFLYSRLTVDKSRWQEGNVFSCSVMHEALHNHYTQKSLSLSLGK
chain 2: EVQLLESGGGLVQPGGSLRLSCAASGFTFGNYDMAWVRQAPGKRPEWVSSIDTGGDITHYADSVKGRFTISRDNAKNTLYLQMNSLRPEDTAVYWCATDEEYALGPNEFDYYGQGTLVTVSSGGGGSGPPCPPCPAPEFLGGPSVFLFPPKPKDTLMISRTPEVTCVVVDVSQEDPEVQFNWYVDGVEVHNAKTKPREEQFNSTYRVVSVLTVLHQDWLNGKEYKCKVSNKGLPSSIEKTISKAKGQPREPQVCTLPPSQEEMTKNQVSLSCAVKGFYPSDIAVEWESNGQPENNYKTTPPVLDSDGSFFLVSRLTVDKSRWQEGNVFSCSVMHEALHNHYTQKSLSLSLGK
B4: NIgG4E1A1(G4S)2 (Fc fusion)
chain 1: DVQLQESGGGLVQAGGSLRLSCLASGRTFTTTSGYNMGWFRQAPGKEREFVAGIKWVSGSNRAYAESVKGRFTISRDNAKNTVYLQMNSLKPEDTAVYYCAAATGQSYVPIREYEYVYWGQGTQVTVSGGGGSGGGGSGPPCPPCPAPEFLGGPSVFLFPPKPKDTLMISRTPEVTCVVVDVSQEDPEVQFNWYVDGVEVHNAKTKPREEQFNSTYRVVSVLTVLHQDWLNGKEYKCKVSNKGLPSSIEKTISKAKGQPREPQVYTLPPCQEEMTKNQVSLWCLVKGFYPSDIAVEWESNGQPENNYKTTPPVLDSDGSFFLYSRLTVDKSRWQEGNVFSCSVMHEALHNHYTQKSLSLSLGK
chain 2: EVQLLESGGGLVQPGGSLRLSCAASGFTFGNYDMAWVRQAPGKRPEWVSSIDTGGDITHYADSVKGRFTISRDNAKNTLYLQMNSLRPEDTAVYWCATDEEYALGPNEFDYYGQGTLVTVSSGGGGSGGGGSGPPCPPCPAPEFLGGPSVFLFPPKPKDTLMISRTPEVTCVVVDVSQEDPEVQFNWYVDGVEVHNAKTKPREEQFNSTYRVVSVLTVLHQDWLNGKEYKCKVSNKGLPSSIEKTISKAKGQPREPQVCTLPPSQEEMTKNQVSLSCAVKGFYPSDIAVEWESNGQPENNYKTTPPVLDSDGSFFLVSRLTVDKSRWQEGNVFSCSVMHEALHNHYTQKSLSLSLGK
B5: NIgG4E1A1(G4S)3 (Fc fusion)
chain 1: DVQLQESGGGLVQAGGSLRLSCLASGRTFTTTSGYNMGWFRQAPGKEREFVAGIKWVSGSNRAYAESVKGRFTISRDNAKNTVYLQMNSLKPEDTAVYYCAAATGQSYVPIREYEYVYWGQGTQVTVSGGGGSGGGGSGGGGSGPPCPPCPAPEFLGGPSVFLFPPKPKDTLMISRTPEVTCVVVDVSQEDPEVQFNWYVDGVEVHNAKTKPREEQFNSTYRVVSVLTVLHQDWLNGKEYKCKVSNKGLPSSIEKTISKAKGQPREPQVYTLPPCQEEMTKNQVSLWCLVKGFYPSDIAVEWESNGQPENNYKTTPPVLDSDGSFFLYSRLTVDKSRWQEGNVFSCSVMHEALHNHYTQKSLSLSLGK
chain 2: EVQLLESGGGLVQPGGSLRLSCAASGFTFGNYDMAWVRQAPGKRPEWVSSIDTGGDITHYADSVKGRFTISRDNAKNTLYLQMNSLRPEDTAVYWCATDEEYALGPNEFDYYGQGTLVTVSSGGGGSGGGGSGGGGSGPPCPPCPAPEFLGGPSVFLFPPKPKDTLMISRTPEVTCVVVDVSQEDPEVQFNWYVDGVEVHNAKTKPREEQFNSTYRVVSVLTVLHQDWLNGKEYKCKVSNKGLPSSIEKTISKAKGQPREPQVCTLPPSQEEMTKNQVSLSCAVKGFYPSDIAVEWESNGQPENNYKTTPPVLDSDGSFFLVSRLTVDKSRWQEGNVFSCSVMHEALHNHYTQKSLSLSLGK
B6: CIgG4E1A1(RS) (Fc fusion)
chain 1: GPPCPPCPAPEFLGGPSVFLFPPKPKDTLMISRTPEVTCVVVDVSQEDPEVQFNWYVDGVEVHNAKTKPREEQFNSTYRVVSVLTVLHQDWLNGKEYKCKVSNKGLPSSIEKTISKAKGQPREPQVYTLPPCQEEMTKNQVSLWCLVKGFYPSDIAVEWESNGQPENNYKTTPPVLDSDGSFFLYSRLTVDKSRWQEGNVFSCSVMHEALHNHYTQKSLSLSLGKRSDVQLQESGGGLVQAGGSLRLSCLASGRTFTTTSGYNMGWFRQAPGKEREFVAGIKWVSGSNRAYAESVKGRFTISRDNAKNTVYLQMNSLKPEDTAVYYCAAATGQSYVPIREYEYVYWGQGTQVTVS
chain 2: GPPCPPCPAPEFLGGPSVFLFPPKPKDTLMISRTPEVTCVVVDVSQEDPEVQFNWYVDGVEVHNAKTKPREEQFNSTYRVVSVLTVLHQDWLNGKEYKCKVSNKGLPSSIEKTISKAKGQPREPQVCTLPPSQEEMTKNQVSLSCAVKGFYPSDIAVEWESNGQPENNYKTTPPVLDSDGSFFLVSRLTVDKSRWQEGNVFSCSVMHEALHNHYTQKSLSLSLGKRSEVQLLESGGGLVQPGGSLRLSCAASGFTFGNYDMAWVRQAPGKRPEWVSSIDTGGDITHYADSVKGRFTISRDNAKNTLYLQMNSLRPEDTAVYWCATDEEYALGPNEFDYYGQGTLVTVSS
B7: CIgG4E1A1(G4S)1 (Fc fusion)
chain 1: GPPCPPCPAPEFLGGPSVFLFPPKPKDTLMISRTPEVTCVVVDVSQEDPEVQFNWYVDGVEVHNAKTKPREEQFNSTYRVVSVLTVLHQDWLNGKEYKCKVSNKGLPSSIEKTISKAKGQPREPQVYTLPPCQEEMTKNQVSLWCLVKGFYPSDIAVEWESNGQPENNYKTTPPVLDSDGSFFLYSRLTVDKSRWQEGNVFSCSVMHEALHNHYTQKSLSLSLGKGGGGSDVQLQESGGGLVQAGGSLRLSCLASGRTFTTTSGYNMGWFRQAPGKEREFVAGIKWVSGSNRAYAESVKGRFTISRDNAKNTVYLQMNSLKPEDTAVYYCAAATGQSYVPIREYEYVYWGQGTQVTVS
chain 2: GPPCPPCPAPEFLGGPSVFLFPPKPKDTLMISRTPEVTCVVVDVSQEDPEVQFNWYVDGVEVHNAKTKPREEQFNSTYRVVSVLTVLHQDWLNGKEYKCKVSNKGLPSSIEKTISKAKGQPREPQVCTLPPSQEEMTKNQVSLSCAVKGFYPSDIAVEWESNGQPENNYKTTPPVLDSDGSFFLVSRLTVDKSRWQEGNVFSCSVMHEALHNHYTQKSLSLSLGKGGGGSEVQLLESGGGLVQPGGSLRLSCAASGFTFGNYDMAWVRQAPGKRPEWVSSIDTGGDITHYADSVKGRFTISRDNAKNTLYLQMNSLRPEDTAVYWCATDEEYALGPNEFDYYGQGTLVTVSS
B8: CIgG4E1A1(G4S)2 (Fc fusion)
chain 1: GPPCPPCPAPEFLGGPSVFLFPPKPKDTLMISRTPEVTCVVVDVSQEDPEVQFNWYVDGVEVHNAKTKPREEQFNSTYRVVSVLTVLHQDWLNGKEYKCKVSNKGLPSSIEKTISKAKGQPREPQVYTLPPCQEEMTKNQVSLWCLVKGFYPSDIAVEWESNGQPENNYKTTPPVLDSDGSFFLYSRLTVDKSRWQEGNVFSCSVMHEALHNHYTQKSLSLSLGKGGGGSGGGGSDVQLQESGGGLVQAGGSLRLSCLASGRTFTTTSGYNMGWFRQAPGKEREFVAGIKWVSGSNRAYAESVKGRFTISRDNAKNTVYLQMNSLKPEDTAVYYCAAATGQSYVPIREYEYVYWGQGTQVTVS
chain 2: GPPCPPCPAPEFLGGPSVFLFPPKPKDTLMISRTPEVTCVVVDVSQEDPEVQFNWYVDGVEVHNAKTKPREEQFNSTYRVVSVLTVLHQDWLNGKEYKCKVSNKGLPSSIEKTISKAKGQPREPQVCTLPPSQEEMTKNQVSLSCAVKGFYPSDIAVEWESNGQPENNYKTTPPVLDSDGSFFLVSRLTVDKSRWQEGNVFSCSVMHEALHNHYTQKSLSLSLGKGGGGSGGGGSEVQLLESGGGLVQPGGSLRLSCAASGFTFGNYDMAWVRQAPGKRPEWVSSIDTGGDITHYADSVKGRFTISRDNAKNTLYLQMNSLRPEDTAVYWCATDEEYALGPNEFDYYGQGTLVTVSS

Target: T1, recombinant human IgE (human, UniProt P01854-1 1-428)
T1 construct: made in-house (ALK); preloaded on immobilised FcεRIα in the displacement ELISA
Experiment: IgE-FcεRIα displacement ELISA
Procedure, shortened: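 Streptavidin-coated plates carried site-specifically biotinylated recombinant human FcεRIα, loaded with recombinant human IgE at 13 ng/ml. sdAbs in a pM–μM series were added for 1 h, and displaced IgE was washed off. Percent displacement was the signal reduction versus the no-sdAb control, giving EC50 and maximal effect.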

T1 sequence (P01854 other isoform, or with tags, fused parts or gaps): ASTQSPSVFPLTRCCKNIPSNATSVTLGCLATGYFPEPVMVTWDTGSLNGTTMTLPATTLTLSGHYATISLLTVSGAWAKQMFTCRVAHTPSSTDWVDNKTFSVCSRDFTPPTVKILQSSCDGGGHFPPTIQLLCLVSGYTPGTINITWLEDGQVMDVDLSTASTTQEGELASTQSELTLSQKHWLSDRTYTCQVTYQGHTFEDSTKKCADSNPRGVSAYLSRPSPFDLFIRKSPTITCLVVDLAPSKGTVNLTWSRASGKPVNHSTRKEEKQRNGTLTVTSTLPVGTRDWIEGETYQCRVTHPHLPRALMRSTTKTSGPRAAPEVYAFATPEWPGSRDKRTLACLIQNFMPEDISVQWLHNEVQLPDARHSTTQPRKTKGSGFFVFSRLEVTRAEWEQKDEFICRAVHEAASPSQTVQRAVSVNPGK

| Binder | EC50 | Max effect |
| --- | --- | --- |
| B1 | 4.8 nM | > 95% |
| B2 | – | > 95% |
| B3 | – | > 95% |
| B4 | – | > 95% |
| B5 | – | > 95% |
| B6 | 480 nM | 65% |
| B7 | 30 nM | > 95% |
| B8 | 10 nM | > 95% |
